B1: HDV Ribozyme (parent)
chain: GGCCGGCAUGGUCCCAGCCUCCUCGCUGGCGCCGGCUGGGCAACAUUCCGAGGGGACCGUCCCCUCGGUAAUGGCGAAUGGGACCCA

Variants of: B1
Assay: self-cleavage, relative activity (ratio to wild type); higher = more cleavage; co-transcriptional

Compared with A71G G82A, A71G G82U is lower in self-cleavage: 0.538 for the first, 0.312 for the second.

Compared with A71U A77G, A71U A77U is lower in self-cleavage: 0.508 for the first, 0.415 for the second.

First: A71U A78C
Second: A71U A78G
The self-cleavage of the first is lower: 0.188 for the first, 0.59 for the second.

Compared with A71U A83U, A71U A87G is higher in self-cleavage: 0.426 for the first, 0.831 for the second.

Going from A71U A87U to A71U C75G, the self-cleavage falls from 0.897 to 0.0852.

Going from A71U C85G to A71U G73C, the self-cleavage falls from 0.587 to 0.54.

First: A71U G74A
Second: A71U G74U
The self-cleavage of the first is lower: 0.519 for the first, 0.689 for the second.

Going from A71U G80C to A71U G80U, the self-cleavage rises from 0.185 to 0.21.

First: A71U G81A
Second: A71U G82A
The self-cleavage of the first is lower: 0.277 for the first, 0.365 for the second.

Going from A71U U72A to A71U U72C, the self-cleavage falls from 0.969 to 0.57.

Going from A71U U79G to U72A, the self-cleavage falls from 0.831 to 0.698.

Compared with U72A A77G, U72A A78C is lower in self-cleavage: 0.57 for the first, 0.125 for the second.

Compared with U72A C75G, U72A C75U is higher in self-cleavage: 0.119 for the first, 0.199 for the second.

First: U72A C86G
Second: U72A G74U
The self-cleavage of the first is higher: 0.674 for the first, 0.397 for the second.

First: U72A G80U
Second: U72C
The self-cleavage of the first is lower: 0.251 for the first, 0.589 for the second.

Going from U72C A77C to U72C A78G, the self-cleavage falls from 0.246 to 0.237.

Compared with U72C A83C, U72C A83U is lower in self-cleavage: 0.332 for the first, 0.128 for the second.

First: U72C A87C
Second: U72C A87G
The self-cleavage of the first is lower: 0.597 for the first, 0.712 for the second.

First: U72C C84A
Second: U72C C84G
The self-cleavage of the first is lower: 0.166 for the first, 0.369 for the second.

Compared with U72C C85U, U72C C86G is lower in self-cleavage: 0.511 for the first, 0.277 for the second.

Going from U72C G74A to U72C G74C, the self-cleavage falls from 0.363 to 0.26.

First: U72C G76A
Second: U72C G76C
The self-cleavage of the first is higher: 0.962 for the first, 0.779 for the second.

Compared with U72C G76U, U72C G80A is lower in self-cleavage: 1.01 for the first, 0.138 for the second.

First: U72C U79G
Second: U72G
The self-cleavage of the first is lower: 0.133 for the first, 0.662 for the second.

Compared with U72G A78C, U72G A78G is higher in self-cleavage: 0.0831 for the first, 0.426 for the second.

Compared with U72G C84U, U72G C85G is higher in self-cleavage: 0.386 for the first, 0.609 for the second.

First: U72G G74C
Second: U72G G76C
The self-cleavage of the first is lower: 0.237 for the first, 0.594 for the second.

Going from U72G G76U to U72G G80C, the self-cleavage falls from 0.646 to 0.26.

Compared with U72G G81C, U72G G82U is lower in self-cleavage: 0.0791 for the first, 0 for the second.

Going from U72G U79A to U72G U79C, the self-cleavage falls from 0.534 to 0.297.

Compared with G73A A83C, G73A C75G is lower in self-cleavage: 0.198 for the first, 0.19 for the second.

First: G73A C75U
Second: G73A C84A
The self-cleavage of the first is lower: 0.119 for the first, 0.564 for the second.

First: G73A C85G
Second: G73A C86A
The self-cleavage of the first is lower: 0.703 for the first, 0.781 for the second.

Compared with G73A G76A, G73A G82C is lower in self-cleavage: 0.665 for the first, 0.172 for the second.

Compared with G73C A77G, G73C A78G is lower in self-cleavage: 0.44 for the first, 0.237 for the second.

Going from G73C A87C to G73C A87G, the self-cleavage falls from 0.592 to 0.454.

Compared with G73C C75U, G73C C85G is higher in self-cleavage: 0.0755 for the first, 0.527 for the second.

Compared with G73C C85U, G73C C86U is higher in self-cleavage: 0.415 for the first, 0.914 for the second.

Going from G73C G74A to G73C G74U, the self-cleavage falls from 0.422 to 0.166.

First: G73C G76A
Second: G73C G80A
The self-cleavage of the first is higher: 0.604 for the first, 0.284 for the second.

Going from G73C G81A to G73U A77U, the self-cleavage falls from 0.0817 to 0.0811.

Compared with G73U A83G, G73U A87C is higher in self-cleavage: 0.219 for the first, 0.385 for the second.

Compared with G73U A87U, G73U C75A is lower in self-cleavage: 0.374 for the first, 0.107 for the second.

First: G73U C75U
Second: G73U C85U
The self-cleavage of the first is lower: 0.111 for the first, 0.458 for the second.

First: G73U G74C
Second: G73U G74U
The self-cleavage of the first is lower: 0.126 for the first, 0.22 for the second.

Going from G73U U79A to G73U U79C, the self-cleavage rises from 0.131 to 0.169.

Compared with G74A A77U, G74A A78U is lower in self-cleavage: 0.267 for the first, 0.173 for the second.

Compared with G74A A87G, G74A C85G is higher in self-cleavage: 0.339 for the first, 0.601 for the second.

Going from G74A C85U to G74A C86A, the self-cleavage rises from 0.462 to 0.537.

Compared with G74A C86G, G74A G76U is higher in self-cleavage: 0.375 for the first, 0.727 for the second.

Going from G74A G82U to G74A U79A, the self-cleavage falls from 0.125 to 0.0852.

Going from G74C A77G to G74C A78C, the self-cleavage rises from 0.145 to 0.185.

Going from G74C A78U to G74C C75G, the self-cleavage falls from 0.332 to 0.0386.

Compared with G74C C84U, G74C C85G is lower in self-cleavage: 0.196 for the first, 0.0791 for the second.

First: G74C G80A
Second: G74C G82A
The self-cleavage of the first is higher: 0.227 for the first, 0.166 for the second.

Compared with G74C G82C, G74U A77C is higher in self-cleavage: 0.0475 for the first, 0.123 for the second.

First: G74U A78U
Second: G74U A83U
The self-cleavage of the first is higher: 0.332 for the first, 0.259 for the second.

First: G74U A87U
Second: G74U C75A
The self-cleavage of the first is higher: 0.506 for the first, 0.228 for the second.

Going from G74U C84G to G74U C85U, the self-cleavage rises from 0.126 to 0.614.

First: G74U C86A
Second: G74U C86U
The self-cleavage of the first is lower: 0.389 for the first, 0.648 for the second.

Compared with G74U G80U, G74U G82A is higher in self-cleavage: 0.0956 for the first, 0.217 for the second.

Compared with G74U U79G, C75A A77G is lower in self-cleavage: 0.199 for the first, 0.0875 for the second.

Going from C75A A78C to C75A A78G, the self-cleavage falls from 0.104 to 0.0898.

Compared with C75A A87C, C75A C84A is higher in self-cleavage: 0.202 for the first, 0.269 for the second.

Going from C75A C84U to C75A C86U, the self-cleavage rises from 0.0545 to 0.0615.

Going from C75A G81C to C75A G81U, the self-cleavage falls from 0.157 to 0.155.

First: C75A U79A
Second: C75A U79G
The self-cleavage of the first is higher: 0.256 for the first, 0.208 for the second.

First: C75G C86G
Second: C75G C86U
The self-cleavage of the first is lower: 0 for the first, 0.156 for the second.

Going from C75G G80C to C75G G81A, the self-cleavage falls from 0.0709 to 0.0332.

Compared with C75G G81U, C75G G82U is higher in self-cleavage: 0.133 for the first, 0.215 for the second.

Compared with C75G U79C, C75U A78C is lower in self-cleavage: 0.113 for the first, 0 for the second.

Going from C75U C84U to C75U C86G, the self-cleavage rises from 0.0767 to 0.145.

Going from C75U G80C to C75U G80U, the self-cleavage rises from 0.142 to 0.178.

First: C75U G81C
Second: C75U G82C
The self-cleavage of the first is higher: 0.16 for the first, 0.108 for the second.

Compared with C75U U79C, G76A is higher in self-cleavage: 0.172 for the first, 1.04 for the second.

Going from G76A A77C to G76A A77G, the self-cleavage rises from 0.657 to 1.04.

Compared with G76A A77U, G76A A87C is higher in self-cleavage: 0.76 for the first, 1.03 for the second.

Going from G76A C86A to G76A G81C, the self-cleavage falls from 0.855 to 0.302.

Compared with G76A U79G, G76C is higher in self-cleavage: 0.672 for the first, 1 for the second.

Compared with G76C A77G, G76C A87G is higher in self-cleavage: 1 for the first, 1.08 for the second.

First: G76C A87U
Second: G76C C84G
The self-cleavage of the first is higher: 1.1 for the first, 0.618 for the second.

Going from G76C C85A to G76C C85G, the self-cleavage rises from 0.873 to 1.23.

First: G76C C85U
Second: G76C G81C
The self-cleavage of the first is higher: 1.14 for the first, 0.0875 for the second.

With G76U the self-cleavage was 1.03.
